The values that follow come from the RNAGym collection of RNA variant scans (doi:10.1093/molbev/msab373).

B1: Azoarcus group I ribozyme (parent)
chain: GUGCCUUGCGCCGGGAAACCACGCAAGGGAUGGUGUCAAAUUCGGCGAAACCUAAGCGCCCGCCCGGGCGUAUGGCAACGCCGAGCCAAGCUUCGGCGCCUGCGCCGAUGAAGGUGUAGAGACUAGACGGCACCCACCUAAGGCAAACGCUAUGGUGAAGGCAUAGUCCAGGGAGUGGCGAAAGUCACACAAACCGG

In the data set the parent is B1. The experiment in a line: reverse-splicing fitness (ratio to wild type); higher = more active; in vitro selection; Mg2+ level not given. The procedure, abridged:
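An in vitro group I ribozyme library with randomized positions was T7-transcribed and gel-purified. In triplicate, 10 pmol RNA in EPPS pH 7.5 was reacted with 50 pmoles of a 30-nt RNA substrate for 1 h at 37 °C across several added MgCl2 levels (1–48 mM), then stopped with EDTA. Products were reverse transcribed from a substrate-complementary primer, PCR-amplified and sequenced (HiSeq 4000). Fitness is a variant's read proportion after selection over that before, normalised to wild type.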
Take C82A A111U A120U A145U C150A C169A U176C: the reverse-splicing fitness was found to be 0.00269. The result for C82A A111U A145G C150U C169A U176A reads 0.016; that for C82A A111U A145G C150U C169A U176C, 0.0162. Turning to C82A A111U A145G C150U C169A U176G, the reverse-splicing fitness stood at 0.00694. Regarding C82A A111U A145G C150U C169U U176G, the reverse-splicing fitness turned out to be 0.00683. For the variant C82A A111U A145G C150U C169U U176A, the reverse-splicing fitness came out at 0.0147.

Consider C82A A111U A145G C150U C169U U176C, for which the reverse-splicing fitness stood at 0.0148. As for C82A A111U A145G C150G U176A, the reverse-splicing fitness was 0.00963. Consider C82A A111U A145G C150G U176G, for which the reverse-splicing fitness amounted to 0.00688. For C82A A111U A145G C150G U176C, the reverse-splicing fitness amounted to 0.0188.

Turning to C82A A111U A145G C150G C169G, the reverse-splicing fitness turned out to be 0.00774. With C82A A111U A145G C150G C169U, the reverse-splicing fitness stood at 0.0101.

Regarding C82A A111U A145G C150G C169A, the reverse-splicing fitness amounted to 0.0097. As to C82A A111U A120U A145U C150G C169G U176A, the reverse-splicing fitness was 0.00327. In the case of C82A A111U A120U A145U C150G C169G U176C, the reverse-splicing fitness came out at 0.00281.

As to C82A A111U A120U A145U C150G C169G U176G, the reverse-splicing fitness turned out to be 0.00241.

For the variant C82A A111U A145U C150U C169A U176C, the reverse-splicing fitness turned out to be 0.0108. As for C82A A111U A145U C150U C169A U176G, the reverse-splicing fitness is 0.00727. To C82A A111U A145U C150U C169A U176A belongs 0.0148. The result for C82A A111U A145U C169A U176A reads 0.012. As to C82A A111U A145U C169A U176G, the reverse-splicing fitness was found to be 0.00655.

Turning to C82A A111U A145U C169A U176C, the reverse-splicing fitness is 0.0114.

Turning to C82A A111U A145G C169U, the reverse-splicing fitness was determined as 0.0129. Consider C82A A111U A145G C169G, for which the reverse-splicing fitness stood at 0.0102. The result for C82A A111U A145G C169A reads 0.0104. As for C82A A111U A120U C150G C169U U176G, the reverse-splicing fitness was found to be 0.00327. The result for C82A A111U A120U C150G C169U U176C reads 0.00451; that for C82A A111U A120U C150G C169U U176A, 0.00341.

In the case of C82A A111U A120U A145G U176A, the reverse-splicing fitness stood at 0.00766. As for C82A A111U A120U A145G U176G, the reverse-splicing fitness was 0.00319. To C82A A111U A120U A145G U176C belongs 0.0114. Turning to C82A A111U A120U C150U C169G, the reverse-splicing fitness came out at 0.00623.

C82A A111U A120U C150U C169A: the reverse-splicing fitness was found to be 0.00594. Consider C82A A111U A120U C150U C169U, for which the reverse-splicing fitness was determined as 0.00507. As for C82A A111U A145G C150A U176C, the reverse-splicing fitness is 0.0448.

For the variant C82A A111U A145G C150A U176G, the reverse-splicing fitness stood at 0.0112. Take C82A A111U A145G C150A U176A: the reverse-splicing fitness is 0.0206.

As for C82A A111U A145U C150G C169A U176A, the reverse-splicing fitness turned out to be 0.0106. For C82A A111U A145U C150G C169A U176C, the reverse-splicing fitness is 0.0109. Take C82A A111U A145U C150G C169A U176G: the reverse-splicing fitness is 0.00651.

As to C82A A111U A120U A145U C150G C169U U176C, the reverse-splicing fitness stood at 0.00313. For the variant C82A A111U A120U A145U C150G C169U U176A, the reverse-splicing fitness was 0.00308.

On to C82A A111U A120U A145U C150G C169U U176G, for which the reverse-splicing fitness stood at 0.0027.

As to C82A A111U A145U C150G C169G, the reverse-splicing fitness is 0.00819.

In the case of C82A A111U A145U C150G C169U, the reverse-splicing fitness is 0.00971. In the case of C82A A111U A145U C150G C169A, the reverse-splicing fitness amounted to 0.00877. On to C82A A111U A120U A145U C150U C169G U176A, for which the reverse-splicing fitness came out at 0.00409. For the variant C82A A111U A120U A145U C150U C169G U176G, the reverse-splicing fitness was found to be 0.00224. Turning to C82A A111U A120U A145U C150U C169G U176C, the reverse-splicing fitness was 0.00351. Turning to C82A A111U A120U C169G U176C, the reverse-splicing fitness worked out at 0.00453. In the case of C82A A111U A120U C169G U176G, the reverse-splicing fitness worked out at 0.00236.

In the case of C82A A111U A120U C169G U176A, the reverse-splicing fitness was 0.00417.

C82A A111U A145C C150U C169U U176A: the reverse-splicing fitness amounted to 0.0138.

In the case of C82A A111U A145C C150U C169U U176G, the reverse-splicing fitness came out at 0.00661.

As to C82A A111U A145C C150U C169U U176C, the reverse-splicing fitness came out at 0.00945.

Turning to C82A A111U A145C U176A, the reverse-splicing fitness stood at 0.0948. In the case of C82A A111U A145C U176C, the reverse-splicing fitness was 0.126. To C82A A111U A145C U176G belongs 0.0253. C82A A111U A145U C150A C169A: the reverse-splicing fitness was 0.0092.

Turning to C82A A111U A145U C150A C169G, the reverse-splicing fitness worked out at 0.00786. In the case of C82A A111U A145U C150A C169U, the reverse-splicing fitness is 0.0108.

As to C82A A111U A145G C150G C169G U176C, the reverse-splicing fitness stood at 0.0133. For the variant C82A A111U A145G C150G C169G U176A, the reverse-splicing fitness is 0.0117.

C82A A111U A145G C150G C169G U176G: the reverse-splicing fitness is 0.00649.

As for C82A A111U A145C C150U C169G U176G, the reverse-splicing fitness was found to be 0.00743.

As for C82A A111U A145C C150U C169G U176A, the reverse-splicing fitness worked out at 0.0233. C82A A111U A145C C150U C169G U176C: the reverse-splicing fitness turned out to be 0.0141.

As to C82A A111U A145G C150U C169A, the reverse-splicing fitness stood at 0.0109. With C82A A111U A145G C150U C169G, the reverse-splicing fitness amounted to 0.00968. Regarding C82A A111U A145G C150U C169U, the reverse-splicing fitness was found to be 0.0139. As to C82A A111U A145G C150A C169G U176G, the reverse-splicing fitness is 0.00681. The result for C82A A111U A145G C150A C169G U176C reads 0.027. On to C82A A111U A145G C150A C169G U176A, for which the reverse-splicing fitness amounted to 0.0183. In the case of C82A A111U A145C C169U U176C, the reverse-splicing fitness turned out to be 0.0102. On to C82A A111U A145C C169U U176A, for which the reverse-splicing fitness came out at 0.016. As for C82A A111U A145C C169U U176G, the reverse-splicing fitness amounted to 0.00582. As to C82A A111U A120U A145G C150U U176C, the reverse-splicing fitness stood at 0.0125. Take C82A A111U A120U A145G C150U U176A: the reverse-splicing fitness was 0.01. Turning to C82A A111U A120U A145G C150U U176G, the reverse-splicing fitness was found to be 0.00393. On to C82A A111U A120U A145U C150U U176A, for which the reverse-splicing fitness worked out at 0.00828. Consider C82A A111U A120U A145U C150U U176G, for which the reverse-splicing fitness was determined as 0.00385. Consider C82A A111U A120U A145U C150U U176C, for which the reverse-splicing fitness turned out to be 0.00878.

On to C82A A111U A145U C150U U176G, for which the reverse-splicing fitness came out at 0.0184.
